Patent US20240116985A1 (published 2024)
Starred links: 1 amine or outer side, 2 acyl side, 3 side chain; linkers in the order of their positions; H or OH if unused. Positions of bridges follow the written chain, without caps; N, C: chain ends. Non-standard residues stand in square brackets, D forms with d. Primed or numbered codes have the meaning given here. PyrS2″ = (S)-3-amino-1-((pent-4-en-1-yloxy)carbonyl)pyrrolidine-3-carboxylic acid (stapling residue), C=CCCCOC(=O)N1CC[C@@](N[*:1])(C(=O)[*:2])C1; B5(4) = 2,2-bis(4-pentenyl)glycine = 2-amino-2-(pent-4-en-1-yl)hept-6-enoic acid (stitching residue), C=CCCCC(CCCC=C)(N[*:1])C(=O)[*:2]; PyrS2 = (S)-3-amino-1-((pent-4-en-1-yloxy)carbonyl)pyrrolidine-3-carboxylic acid, C=CCCCOC(=O)N1CC[C@@](N[*:1])(C(=O)[*:2])C1; B5(19) = 2-amino-2-(pent-4-en-1-yl)hept-6-enoic acid (bis(4-pentenyl)glycine), C=CCCCC(CCCC=C)(N[*:1])C(=O)[*:2]; Phe(4-CN) = N#Cc1ccc(C[C@H](N)C(=O)O)cc1; Phe(2-Cl) = N[C@@H](Cc1ccccc1Cl)C(=O)O; Bta = N[C@@H](Cc1csc2ccccc12)C(=O)O; αAllylPro = C=CC[C@@]1(C(=O)O)CCCN1; S8 = C=CCCCCCC[C@](C)(N)C(=O)O

T1: full-length beta-Catenin (Uniprot ID P35222) (Homo sapiens (Human), UniProt P35222 2-781)
T1 construct: The assay protocols say only 'full-length'; No tag is stated, although the AlphaScreen kit is a Histidine (Nickel Chelate) kit; also called B-Catenin; bCat
T1 sequence: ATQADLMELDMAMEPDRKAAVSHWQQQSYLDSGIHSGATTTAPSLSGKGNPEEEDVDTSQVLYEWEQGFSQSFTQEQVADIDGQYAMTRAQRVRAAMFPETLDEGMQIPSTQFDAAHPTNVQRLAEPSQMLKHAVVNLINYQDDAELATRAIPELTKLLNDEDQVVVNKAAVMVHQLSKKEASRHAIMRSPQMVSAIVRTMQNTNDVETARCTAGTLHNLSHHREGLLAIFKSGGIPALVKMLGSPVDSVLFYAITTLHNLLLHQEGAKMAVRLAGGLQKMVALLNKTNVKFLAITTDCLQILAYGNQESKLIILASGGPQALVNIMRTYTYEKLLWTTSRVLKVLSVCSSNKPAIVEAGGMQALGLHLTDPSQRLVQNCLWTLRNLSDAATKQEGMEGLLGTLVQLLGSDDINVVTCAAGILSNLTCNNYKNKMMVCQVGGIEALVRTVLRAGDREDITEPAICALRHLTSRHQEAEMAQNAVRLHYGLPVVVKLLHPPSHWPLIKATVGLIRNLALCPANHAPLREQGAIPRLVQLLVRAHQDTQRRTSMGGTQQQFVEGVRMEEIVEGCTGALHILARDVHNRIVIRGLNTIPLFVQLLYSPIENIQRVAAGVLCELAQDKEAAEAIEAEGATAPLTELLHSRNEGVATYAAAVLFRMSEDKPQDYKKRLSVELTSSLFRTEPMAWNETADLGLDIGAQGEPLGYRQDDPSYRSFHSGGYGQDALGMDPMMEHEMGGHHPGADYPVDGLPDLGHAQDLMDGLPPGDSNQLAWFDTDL

T2: beta-catenin (Homo sapiens (Human), UniProt P35222 1-781)
T2 construct: The FP protocol says full-length beta-Catenin (Uniprot ID P35222); also called full-length beta-Catenin; bCat
T2 sequence: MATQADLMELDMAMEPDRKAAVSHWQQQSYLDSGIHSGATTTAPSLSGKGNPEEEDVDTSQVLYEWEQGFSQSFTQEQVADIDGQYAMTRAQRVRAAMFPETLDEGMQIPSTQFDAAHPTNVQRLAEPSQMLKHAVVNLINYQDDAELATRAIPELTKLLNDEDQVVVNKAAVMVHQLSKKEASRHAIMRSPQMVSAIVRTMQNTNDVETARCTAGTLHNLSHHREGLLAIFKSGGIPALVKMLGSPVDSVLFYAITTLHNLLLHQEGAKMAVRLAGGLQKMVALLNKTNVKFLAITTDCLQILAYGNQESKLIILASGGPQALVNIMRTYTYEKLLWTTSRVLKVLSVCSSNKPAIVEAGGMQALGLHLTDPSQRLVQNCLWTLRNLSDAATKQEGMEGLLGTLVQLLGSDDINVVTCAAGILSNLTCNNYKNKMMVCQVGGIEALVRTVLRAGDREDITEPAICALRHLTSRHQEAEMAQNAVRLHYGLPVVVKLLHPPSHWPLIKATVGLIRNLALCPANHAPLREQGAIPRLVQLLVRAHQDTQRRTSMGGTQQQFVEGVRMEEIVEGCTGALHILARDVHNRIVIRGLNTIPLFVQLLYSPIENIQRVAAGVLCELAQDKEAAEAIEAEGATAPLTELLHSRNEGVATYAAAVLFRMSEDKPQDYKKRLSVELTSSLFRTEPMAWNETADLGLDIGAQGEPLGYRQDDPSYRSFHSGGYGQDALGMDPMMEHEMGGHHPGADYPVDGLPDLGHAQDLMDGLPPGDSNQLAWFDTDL

T3: full-length beta-Catenin (Uniprot ID P35222) (Homo sapiens (Human), UniProt P35222 1-781)
T3 construct: Tags are not described; Also used here as the target of the DLD1 TCF reporter read-out (endogenous beta-catenin in DLD1 cells); also called bCat; B-Catenin
T3 sequence: T2 sequence

T4: full-length beta-Catenin (Uniprot ID P35222) (Homo sapiens (Human), UniProt P35222 1-781)
T4 construct: also called bCat; B-Catenin
T4 sequence: T2 sequence

B1: I-356 (peptide)
peptide: XDAXDDAAFVXAWQ
modifications: not fully specified; N-terminal Ac; C-terminal NH2; PL3 at 1, B5 at 4, S8 at 11 (stapled 1-4 and 4-11)
notes: Stapled peptide composition; Later-eluting isomer composition; also called Ac-PL3-Asp-Ala-B5-Asp-Asp-Ala-Ala-Phe-Val-S8-Ala-Trp-Gln-NH2
B2: I-1419 (peptide)
peptide: Ac-[αAllylPro]DL[B5(4)]DDAAFL[PyrS2″][Phe(2-Cl)][Bta]L-NH2
modifications: staple 1-4, 4-11; also: staple isomer composition of later HPLC peak
notes: stapled peptide
B3: I-1423 (peptide)
peptide: Ac-[αAllylPro]DS[B5(4)]DDAAFL[PyrS2][Phe(2-Cl)][Bta]L-NH2
modifications: staple 1-4, 4-11
notes: stapled peptide
B4: I-1424 (peptide)
peptide: Ac-[αAllylPro]DT[B5(4)]DDAAFL[PyrS2][Phe(2-Cl)][Bta]L-NH2
modifications: staple 1-4, 4-11
notes: stapled peptide
B5: I-1049 (peptide)
peptide: Ac-[αAllylPro]DF[B5(4)]DDAAFT[PyrS2″][Phe(2-Cl)][Bta]S-NH2
modifications: staple 1-4, 4-11
notes: also called Ac-PL3-Asp-Phe-B5-Asp-Asp-Ala-Ala-Phe-Thr-PyrS2-2C1F-BztA-Ser-NH2
B6: I-354 (peptide)
peptide: XDAXDDAAAVXFWQ
modifications: not fully specified; N-terminal Ac; C-terminal NH2; PL3 at 1, B5 at 4, S8 at 11 (stapled 1-4 and 4-11)
notes: Stapled peptide composition; Later-eluting isomer composition; also called Ac-PL3-Asp-Ala-B5-Asp-Asp-Ala-Ala-Ala-Val-S8-Phe-Trp-Gln-NH2
B7: I-359 (peptide)
peptide: Ac-[αAllylPro]DA[B5(19)]DDAAFV[S8][Phe(4-CN)][Bta]Q-NH2
modifications: staple 1-4, 4-11
notes: Stapled peptide composition; also called Ac-PL3-Asp-Ala-B5-Asp-Asp-Ala-Ala-Phe-Val-S8-4CNF-BztA-Gln-NH2
B8: I-357 (peptide)
peptide: XDAXDDAAFVXFAQ
modifications: not fully specified; N-terminal Ac; PL3 at 1, B5 at 4, S8 at 11 (staples 1-4 and 4-11 by olefin metathesis); C-terminal NH2
notes: Stapled peptide; also called Ac-PL3-Asp-Ala-B5-Asp-Asp-Ala-Ala-Phe-Val-S8-Phe-Ala-Gln-NH2
B9: I-356 (peptide)
peptide: XDAXDDAAFVXAWQ
modifications: not fully specified; N-terminal Ac; PL3 at 1, B5 at 4, S8 at 11 (staples 1-4 and 4-11 by olefin metathesis); C-terminal NH2
notes: Stapled peptide; also called Ac-PL3-Asp-Ala-B5-Asp-Asp-Ala-Ala-Phe-Val-S8-Ala-Trp-Gln-NH2
B10: I-355 (peptide)
peptide: XDAXDDAAFVXAWQ
modifications: not fully specified; N-terminal Ac; PL3 at 1, B5 at 4, S8 at 11 (staples 1-4 and 4-11 by olefin metathesis); C-terminal NH2
notes: as for B9
B11: I-359 (peptide)
peptide: Ac-[αAllylPro]DA[B5(19)]DDAAFV[S8][Phe(4-CN)][Bta]Q-NH2
modifications: staple 1-4, 4-11
notes: Stapled peptide; also called Ac-PL3-Asp-Ala-B5-Asp-Asp-Ala-Ala-Phe-Val-S8-4CNF-BztA-Gln-NH2
B12: I-354 (peptide)
peptide: XDAXDDAAAVXFWQ
modifications: not fully specified; N-terminal Ac; PL3 at 1, B5 at 4, S8 at 11 (staples 1-4 and 4-11 by olefin metathesis); C-terminal NH2
notes: Stapled peptide; also called Ac-PL3-Asp-Ala-B5-Asp-Asp-Ala-Ala-Ala-Val-S8-Phe-Trp-Gln-NH2
B13: I-358 (peptide)
peptide: XDAXDDAAFVXFAQ
modifications: not fully specified; N-terminal Ac; PL3 at 1, B5 at 4, S8 at 11 (staples 1-4 and 4-11 by olefin metathesis); C-terminal NH2
notes: as for B8

These binders were tested against T1, full-length beta-Catenin (Uniprot ID …) (assay: AlphaScreen competition; peptide titrated against full-length beta-catenin + biotin-TCF4(10-53)).
Protocol: Equal volume of the titrated peptide was added to the plate and incubated for 15 minutes at 20° C. Then 4 uL of donor and 4 uL acceptor beads at 10 ug/mL were added to the plate, for a 16 uL reaction pool and protected from light for 60 minutes at 20° C. prior to read. Reads were performed on a CLARIOstar plate reader (BMG Labtech) in duplicate, and data were fitted to a 1:1 binding model with hill slope using an in-house script. All provided concentrations are final concentrations.

| EC50 [µM] | Binder |
| --- | --- |
| 8.2 | B1 |

Each binder was assayed against T2, beta-catenin (assay: fluorescence polarization competition; full-length beta-catenin with 5FAM-TCF4(10-53) probe as competitor).
How it was run: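 Readings followed a light-protected 60-minute incubation at 20° C. Each read was done in duplicate. Curves were fit with a 1:1 binding model including hill slope, and stated concentrations are final.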

| EC50 [µM] | Binder |
| --- | --- |
| 0.152 | B2 |
| 0.389 | B3 |
| 0.235 | B4 |

Each binder was assayed against T3, full-length beta-Catenin (Uniprot ID …) (assay: fluorescence polarization competition; full-length beta-catenin with 5FAM-TCF4(10-53) probe, peptide titrated).
Protocol: (§1) The plate was incubated protected from light for 60 minutes at 20° C. prior to read. Reads were performed on a CLARIOstar plate reader (BMG Labtech) in duplicate, and data were fitted to a 1:1 binding model with hill slope using an in-house script. All provided concentrations are final concentrations.

| IC50 [µM] | Binder |
| --- | --- |
| 0.006 | B5 |

What follows are binders tested against T1, full-length beta-Catenin (Uniprot ID …) (assay: fluorescence polarization competition; peptide titrated against full-length beta-catenin + 5FAM-TCF4(10-53) probe).
Protocol: as §1

| EC50 [µM] | Binder |
| --- | --- |
| 5 | B6 |
| 5 | B1 |
| 5 | B7 |

The binders below were run against T4, full-length beta-Catenin (Uniprot ID …) (assay: fluorescence polarization competition; peptide titrated against 10 nM full-length beta-catenin + 10 nM 5FAM-TCF4(10-53)).
Protocol: as §1

| IC50 [µM] | Binder |
| --- | --- |
| 5 | B8 |
| 5 | B9 |
| 5 | B10 |
| 5 | B11 |
| 5 | B12 |
| 5 | B13 |
